Reference: patent publication EP4703383A1 (Shenzhen Genuine Biomedical Technology Co., Ltd, dated 2026)

What was measured:
[1] = target: T1, extracellular segment of the PRLR protein of cynomolgus monkey with avi-(his)6 tag (cynoPRLR-ECD-avi-his) (cynomolgus monkey); experiment: BLI, biotinylated monomeric PRLR ECD on streptavidin sensor, antibody 3.125-100 nM in solution, 1:1 fit
T1 construct: The assays say only 'monomeric monkey PRLR extracellular domain / ECD'; also called cynomolgus monkey PRLR extracellular domain; Monkey PRLR
T1 chain: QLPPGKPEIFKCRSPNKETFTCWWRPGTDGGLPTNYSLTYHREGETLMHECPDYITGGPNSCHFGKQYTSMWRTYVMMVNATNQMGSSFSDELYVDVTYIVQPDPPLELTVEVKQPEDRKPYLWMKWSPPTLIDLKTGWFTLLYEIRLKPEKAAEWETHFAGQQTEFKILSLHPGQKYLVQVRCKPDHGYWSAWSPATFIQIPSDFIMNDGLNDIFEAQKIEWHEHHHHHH

[2] = target: T2, extracellular segment of human PRLR protein with avi-(his)6 tag (hPRLR-ECD-avi-his) (human, UniProt P16471 25-234); experiment: as above
T2 construct: The assays say only 'monomeric human PRLR extracellular domain / ECD'; also called human PRLR extracellular domain; monomeric PRLR ECD
T2 sequence: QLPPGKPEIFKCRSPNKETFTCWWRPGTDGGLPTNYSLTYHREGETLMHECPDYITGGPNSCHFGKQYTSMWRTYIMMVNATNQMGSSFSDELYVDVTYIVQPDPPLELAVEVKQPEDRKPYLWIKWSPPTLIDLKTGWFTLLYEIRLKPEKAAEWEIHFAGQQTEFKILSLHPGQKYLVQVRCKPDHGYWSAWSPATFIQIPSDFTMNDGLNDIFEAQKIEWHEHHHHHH

[3] = target: T2, extracellular segment of human PRLR …; experiment: BLI epitope binning on biotinylated human PRLR ECD, 100 nM each; competitor: P-PR-C05H-v2; which axis is the first antibody is not stated
[4] = target: T2, extracellular segment of human PRLR …; experiment: BLI epitope binning on biotinylated human PRLR ECD, 100 nM each; competitor: HP-PR01D12-v; which axis is the first antibody is not stated
[5] = target: T2, extracellular segment of human PRLR …; experiment: BLI epitope binning on biotinylated human PRLR ECD, 100 nM each; competitor: P-PR-C07H-v; which axis is the first antibody is not stated
[6] = target: T3, human PRLR expressed on cells (human, UniProt P16471 25-622); experiment: cell-based or functional assay
T3 sequence: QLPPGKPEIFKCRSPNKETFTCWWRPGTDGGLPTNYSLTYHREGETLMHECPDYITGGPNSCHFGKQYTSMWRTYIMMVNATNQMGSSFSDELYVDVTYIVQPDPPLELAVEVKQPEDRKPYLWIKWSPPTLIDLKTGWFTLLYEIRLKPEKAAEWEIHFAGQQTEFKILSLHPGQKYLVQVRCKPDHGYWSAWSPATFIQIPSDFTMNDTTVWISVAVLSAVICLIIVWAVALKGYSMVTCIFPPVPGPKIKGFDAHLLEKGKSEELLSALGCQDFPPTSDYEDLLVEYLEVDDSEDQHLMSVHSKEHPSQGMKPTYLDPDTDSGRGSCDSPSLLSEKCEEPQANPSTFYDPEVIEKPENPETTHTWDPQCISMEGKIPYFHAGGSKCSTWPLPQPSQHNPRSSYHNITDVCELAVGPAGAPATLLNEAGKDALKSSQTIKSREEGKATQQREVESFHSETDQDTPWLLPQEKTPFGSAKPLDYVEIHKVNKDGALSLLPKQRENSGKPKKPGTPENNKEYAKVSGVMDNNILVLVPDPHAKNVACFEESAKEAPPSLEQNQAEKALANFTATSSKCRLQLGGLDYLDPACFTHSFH

[7] = target: T1, extracellular segment of the PRLR …; experiment: ELISA, coated antigen 1 ug/mL, antibody 10 ug/mL
[8] = target: T4, recombinant mesothelin protein with the same tag; experiment: ELISA, coated antigen 1 ug/mL, antibody 10 ug/mL
T4 construct: Control antigen of the species-specific ELISA; also called Control protein

[9] = target: T1, extracellular segment of the PRLR …; experiment: ELISA, coated antigen 1 ug/mL
[10] = target: T2, extracellular segment of human PRLR …; experiment: BLI (Octet), antibody on Protein A sensor, monomeric PRLR ECD in solution, 1:1 fit
[11] = target: T2, extracellular segment of human PRLR …; experiment: ELISA, coated antigen 1 ug/mL, antibody 10 ug/mL

Binder	Kd [1] [pM]	koff [1] [s⁻¹]	kon [1] [M⁻¹ s⁻¹]	Kd [2] [pM]	koff [2] [s⁻¹]	kon [2] [M⁻¹ s⁻¹]	ratio of the binding signal of the second antibody to the reference [3] [%]	ratio of the binding signal of the second antibody to the reference [4] [%]	ratio of the binding signal of the second antibody to the reference [5] [%]	Blocking percentage (%) of 100 nM antibody (STAT5 luciferase reporter) [6] [%]	absorbance at 450nm [7]	absorbance at 450nm [8]	binding result [9]	Kd [10] [pM]	koff [10] [s⁻¹]	kon [10] [M⁻¹ s⁻¹]	absorbance at 450nm [11]
P-PR-C05H-v2 (antibody, V domains shown, Humanized antibody from P-PR-C05H; also called Antibody No. 25; Anti-P-PR-C05H-v2) VH: EVQLVQSGAEVKKPGASVKVSCKASGFTFTTFWVHWVRQAPGQGLEWIGNIAPGSTSTNYAQKFQGRATLTVDTSISTAYMELSSLRSEDTAVYYCIRHSGNYFNAMDYWGQGTLVTVSS VL: DIVMTQSPLSLPVTPGEPASISCRSSKSLLHSNGNTYLYWFLQKPGQSPQLLIYRMSNRASGVPDRFSGSGSGTDFTLKISRVEAEDVGVYYCMQHLEYPLTFGQGTKVEIK	< 1	4.08e-07	1.04e+06	< 1	5.03e-07	937000	11.2	15.5	35	17.3							
P-PR-C07H-v (antibody, V domains shown, Humanized antibody from P-PR-C07H; also called Antibody No. 26; hP-PR-C07H-v) VH: EVQLVQSGAEVKKPGSSVKVSCKASGYTFTNNWLAWIRQAPGQGLEWIGDIYPGGVYTNYNQKFQGRATLTADTSTSTAYMELSSLRSEDTAVYFCYYGDFWSAYWGQGTLVTVSS VL: DIVMTQSPLSLPVTPGEPASISCRSSKSLLHSNGNTYLYWFLQKPGQSPQLLIYRMSNRASGVPDRFSGSGSGTDFTLKISRVEAEDVGVYYCMQHLEYPLTFGQGTKVEIK	< 1	4.19e-07	663000	3940	0.0032	813000	52.7	49.8	13.4	100							
HP-PR02H02 (antibody, V domains shown, also called Antibody No. 21) VH: EVMLVESGGGLVKPGGSLKLACAASGFTFSSYTMSWVRQTPEKRLEWVATISSGGSYTYYPDSVKGRFTISRDNAKNTLYLQLSSLKSEDTAMYYCTRDRYYSTTPDWYFDVWGAGTTLTVSS VL: DIVITQSPATLSVTPGDSVSLSCRATQIIFNNLHWYQQKSHESPRLLITYTSQSISGIPSRFSGSGSGTDFTLTINSVETEDFGMYFCQQSNTWPRTFGGGTKLEIK											0.097	0.076	no binding (tested: 10 µg/mL)				
P-PR-C07H (antibody, V domains shown, also called Antibody No. 5) VH: EVQLQQSGAELVRPGTSVQISCKASGYTFTNNWLAWIKQRPGHGLEWIGDIYPGGVYTNYNEKFKGKATLTADTSSSTAYMQLSSLTSEDSAVYFCYYGDFWSAYWGQGTLVTVSA VL: DIVMTQAAPSVPVTPGESVSISCRSSKSLLHSNGNTYLYWFLQRPGQSPQLLIYRMSNLASGVPDRFSGSGSGTAFTLRISRVEAEDVGVYYCMQHLEYPLTFGAGTKLELK												0.062		3640	0.000386	106000	2.29
HP-PR01B01 (antibody, V domains shown, also called Antibody No. 23) VH: EVHLVESGPDLVKPSQSLSLTCTVTGYSITSGYNWHWIRQFPGNKLEWMGYIHYSGSTKYDPSLKSRISFTRDTSRNQFFLQLNSVTTEDRATYYCARSEAGGYSWFAYWGQGTLVTVSA VL: DIVMTQSPAIMSASPGEKVTMACSASSSVNYMHWYQQKSGTSPKRWIYDTSKLASGVPARFSGSGSGTSYSLTISSMEAEDAATYYCQQWSSNPLTFGAGTKLELK											0.077	0.076	no binding (tested: 10 µg/mL)				
HP-PR01D12-v (antibody, V domains shown, also called Antibody No. 27; hHP-PR01D12-v) VH: EVQLVESGGGLVQPGGSLRLSCAASGFTFSSFGMNWVRQAPGKGLEWVAYISSGSSIIYYADSVKGRFTISRDNSKNTLYLQMNSLRAEDTAVYYCTRFYGYIPFDYWGQGTLVTVSS VL: DIQMTQSPSSLSASVGDRVTITCRASSSLIYLHWYQQKPGKAPKLWIYDTSKLASGVPSRFSGSGSGNDYTLTISSLQPEDFATYYCFQGSGYPLTFGQGTKVEIK	< 1	3.43e-07	453000	1.13	4.88e-07	431000	9.2	14.4	31.8	46.7							
